Measured values taken from paper PMC5382584, “In search of tail-anchored protein machinery in plants: reevaluating the role of arsenite transporters” (Scientific Reports, 2017).
Values joined by “and” are separate entries in the source; they are usually repeats but may differ in a detail not shown here. Equal entries are not always repeated.

Target: the molecule itself
Assay: SEC; preparative size-exclusion chromatography of the purified protein, Superdex-200-16/600GL column; oligomeric state from peak positions

B1: Cr-ArsA2 (C. reinhardtii ArsA2), recombinant, purified (natural protein, UniProt A8IXB8 1-362, looked up)
chain: MAADMPDPTLQNVVDQKELKWIFVGGKGGVGKTTTSSSLAVALAESGTRNRVLIISTDPAHNLSDAFRQKFTKTPTLVNGFTNLFAMEVDPQPDIGEMEQLEWAQDSFLTELAGSIPGIDEAMSFAEVMKQVQTMDYDTIVFDTAPTGHTLRLLNFPTILEKGLSKLVALKGAMGGMMGQVTRMLGGMAGGGEGAADLPDQLLGKVEGMLDVVRKVSAQFKDPLLTTFVAVCIPEFLSLYETERLVQELAKFEIDCRNIVINQIIFPESVGGSRLLDARVRMQQKYLDQFYELYEDFHILQLPLLEEEVRGPEALKAFAVNLLKPYVPAPPTDAAARQAALVSEVAALKKRVAELEAALAKK
notes: ArsA2 of Chlamydomonas reinhardtii, full-length open reading frame, one ATPase domain; pET21 modified with a TEV site between the N-terminal 6His-tag and the polylinker; Seen as dimers and tetramers; also called Dimeric Cr-ArsA2; arsenite transporter ArsA2; source: E. coli BL21 (DE3), purified (Ni-NTA, size-exclusion chromatography)
B1 was tested, and the “stoichiometry N” value was 2 and 4.
